# In US20130005646A1 (Novo Nordisk, published 2013):
# Starred links: 1 amine or outer side, 2 acyl side, 3 side chain; linkers in the order of their positions; H or OH if unused. Positions of bridges follow the written chain, without caps; N, C: chain ends. Non-standard residues stand in square brackets, D forms with d. *: point of attachment. C20 diacid = O=C(O)CCCCCCCCCCCCCCCCCCC(=O)*; 19‑carboxyheptadecanoyl = not defined here; C18 diacid = O=C(O)CCCCCCCCCCCCCCCCC(=O)*; γGlu = O=C(O)[C@H](CCC(=O)[*:2])N[*:1]; AEEA = NCCOCCOCC(=O)O
# T1: human amylin 3(a) receptor (human calcitonin receptor + RAMP-3) (human, UniProt P30988 25-474; O60896 24-148)
# T1 sequence (looked up) 1: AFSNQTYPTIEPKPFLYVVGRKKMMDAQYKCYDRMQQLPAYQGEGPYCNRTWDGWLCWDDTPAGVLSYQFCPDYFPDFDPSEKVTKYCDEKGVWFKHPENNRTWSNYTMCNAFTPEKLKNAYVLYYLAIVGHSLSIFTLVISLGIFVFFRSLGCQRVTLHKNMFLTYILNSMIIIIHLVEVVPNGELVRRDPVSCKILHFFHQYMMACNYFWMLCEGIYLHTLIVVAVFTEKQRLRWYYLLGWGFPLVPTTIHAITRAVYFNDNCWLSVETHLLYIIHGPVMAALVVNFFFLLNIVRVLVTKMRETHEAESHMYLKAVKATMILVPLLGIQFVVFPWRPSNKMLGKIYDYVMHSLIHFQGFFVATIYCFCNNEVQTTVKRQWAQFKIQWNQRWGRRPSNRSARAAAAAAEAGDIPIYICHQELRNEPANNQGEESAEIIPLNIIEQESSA
# T1 sequence (looked up) 2: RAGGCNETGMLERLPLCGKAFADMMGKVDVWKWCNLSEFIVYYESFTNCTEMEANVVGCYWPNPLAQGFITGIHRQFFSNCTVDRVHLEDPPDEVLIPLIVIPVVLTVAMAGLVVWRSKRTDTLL
# T2: human calcitonin (a) receptor (human, UniProt P30988 25-474)
# T2 sequence (looked up): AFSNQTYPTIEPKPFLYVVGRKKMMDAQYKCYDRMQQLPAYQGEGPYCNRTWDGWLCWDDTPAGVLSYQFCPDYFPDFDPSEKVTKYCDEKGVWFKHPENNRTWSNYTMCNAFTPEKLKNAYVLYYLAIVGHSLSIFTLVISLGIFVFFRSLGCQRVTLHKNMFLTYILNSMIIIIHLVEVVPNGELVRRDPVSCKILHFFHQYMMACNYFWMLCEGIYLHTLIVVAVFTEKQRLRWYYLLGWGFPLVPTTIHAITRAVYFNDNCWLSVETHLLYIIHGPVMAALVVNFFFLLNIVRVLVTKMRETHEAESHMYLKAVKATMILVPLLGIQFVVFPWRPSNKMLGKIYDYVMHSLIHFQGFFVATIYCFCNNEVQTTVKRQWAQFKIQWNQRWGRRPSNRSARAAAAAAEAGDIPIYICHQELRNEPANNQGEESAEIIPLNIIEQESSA
# T3: rat amylin 3(a) receptor (rat calcitonin(a) receptor + rat RAMP3) (rat, UniProt P32214 25-516; Q9JJ73 23-147)
# T3 sequence (looked up) 1: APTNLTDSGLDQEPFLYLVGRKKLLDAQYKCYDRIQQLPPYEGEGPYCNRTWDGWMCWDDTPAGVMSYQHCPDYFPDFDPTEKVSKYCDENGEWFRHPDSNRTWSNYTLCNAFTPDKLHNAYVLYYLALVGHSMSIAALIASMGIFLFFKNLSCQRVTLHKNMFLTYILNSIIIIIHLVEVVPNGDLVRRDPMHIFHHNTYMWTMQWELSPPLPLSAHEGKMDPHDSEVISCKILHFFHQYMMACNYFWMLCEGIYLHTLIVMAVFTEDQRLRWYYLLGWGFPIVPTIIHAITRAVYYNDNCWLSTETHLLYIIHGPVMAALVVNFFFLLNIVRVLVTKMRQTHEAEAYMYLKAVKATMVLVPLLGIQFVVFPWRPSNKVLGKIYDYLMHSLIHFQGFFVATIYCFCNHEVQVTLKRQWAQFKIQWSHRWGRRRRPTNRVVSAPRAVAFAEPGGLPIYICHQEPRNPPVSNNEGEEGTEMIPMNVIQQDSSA
# T3 sequence (looked up) 2: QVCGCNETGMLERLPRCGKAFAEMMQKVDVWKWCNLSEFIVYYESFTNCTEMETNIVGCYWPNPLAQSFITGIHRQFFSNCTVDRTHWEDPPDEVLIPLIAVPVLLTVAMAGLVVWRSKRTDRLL
# T4: rat calcitonin (a) receptor (rat, UniProt P32214 25-516)
# T4 sequence (looked up): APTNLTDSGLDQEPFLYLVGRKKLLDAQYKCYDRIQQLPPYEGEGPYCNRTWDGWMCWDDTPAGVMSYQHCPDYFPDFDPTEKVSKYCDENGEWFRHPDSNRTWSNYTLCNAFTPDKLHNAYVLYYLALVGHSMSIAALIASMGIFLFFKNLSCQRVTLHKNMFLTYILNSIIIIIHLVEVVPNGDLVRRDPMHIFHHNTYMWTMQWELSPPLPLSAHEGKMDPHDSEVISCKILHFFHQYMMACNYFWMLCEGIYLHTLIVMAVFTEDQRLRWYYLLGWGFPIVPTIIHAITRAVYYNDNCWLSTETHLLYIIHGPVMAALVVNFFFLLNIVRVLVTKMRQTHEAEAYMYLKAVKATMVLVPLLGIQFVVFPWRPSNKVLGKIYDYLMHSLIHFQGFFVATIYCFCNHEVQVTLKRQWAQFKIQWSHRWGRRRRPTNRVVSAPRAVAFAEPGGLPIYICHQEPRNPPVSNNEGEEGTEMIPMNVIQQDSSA
# Key:
# Assay in all cases: cell-based or functional assay
# [1] = target: T1, human amylin 3(a) receptor (human …)
# [2] = target: T2, human calcitonin (a) receptor
# [3] = target: T3, rat amylin 3(a) receptor (rat …)
# [4] = target: T4, rat calcitonin (a) receptor
Amylin receptor human EC50 [1] [nM],CTa receptor human EC50 [2] [nM],Amylin receptor rat EC50 [3] [nM],CTa receptor rat EC50 [4] [nM],Binder
0.0739,0.274,0.135,2.43,"{C18 diacid-γGlu}-EKCNTATCATQRLAEFLHHSSNNFGPILPPTNVGSNTY-NH2 (disulfide 3-8; SMILES CC[C@H](C)[C@H](NC(=O)[C@@H]1CCCN1C(=O)CNC(=O)[C@H](Cc1ccccc1)NC(=O)[C@H](CC(N)=O)NC(=O)[C@H](CC(N)=O)NC(=O)[C@H](CO)NC(=O)[C@H](CO)NC(=O)[C@H](Cc1c[nH]cn1)NC(=O)[C@H](Cc1c[nH]cn1)NC(=O)[C@H](CC(C)C)NC(=O)[C@H](Cc1ccccc1)NC(=O)[C@H](CCC(=O)O)NC(=O)[C@H](C)NC(=O)[C@H](CC(C)C)NC(=O)[C@H](CCCNC(=N)N)NC(=O)[C@H](CCC(N)=O)NC(=O)[C@@H](NC(=O)[C@H](C)NC(=O)[C@@H]1CSSC[C@H](NC(=O)[C@H](CCCCN)NC(=O)[C@H](CCC(=O)O)NC(=O)CC[C@H](NC(=O)CCCCCCCCCCCCCCCCC(=O)O)C(=O)O)C(=O)N[C@@H](CC(N)=O)C(=O)N[C@@H]([C@@H](C)O)C(=O)N[C@@H](C)C(=O)N[C@@H]([C@@H](C)O)C(=O)N1)[C@@H](C)O)C(=O)N[C@@H](CC(C)C)C(=O)N1CCC[C@H]1C(=O)N1CCC[C@H]1C(=O)N[C@H](C(=O)N[C@@H](CC(N)=O)C(=O)N[C@H](C(=O)NCC(=O)N[C@@H](CO)C(=O)N[C@@H](CC(N)=O)C(=O)N[C@H](C(=O)N[C@@H](Cc1ccc(O)cc1)C(N)=O)[C@@H](C)O)C(C)C)[C@@H](C)O) [N-alpha-[(S)-4-Carboxy-4-(17-carboxyheptadecanoylamino)butyryl]-Glu-[Glu14,His17]-pramlintide]"
0.121,0.107,0.188,0.539,"{C20 diacid-γGlu}-KCNTATCATQRLAEFLHHSSNNFGPILPPTNVGSNTY-NH2 (disulfide 2-7; SMILES CC[C@H](C)[C@H](NC(=O)[C@@H]1CCCN1C(=O)CNC(=O)[C@H](Cc1ccccc1)NC(=O)[C@H](CC(N)=O)NC(=O)[C@H](CC(N)=O)NC(=O)[C@H](CO)NC(=O)[C@H](CO)NC(=O)[C@H](Cc1c[nH]cn1)NC(=O)[C@H](Cc1c[nH]cn1)NC(=O)[C@H](CC(C)C)NC(=O)[C@H](Cc1ccccc1)NC(=O)[C@H](CCC(=O)O)NC(=O)[C@H](C)NC(=O)[C@H](CC(C)C)NC(=O)[C@H](CCCNC(=N)N)NC(=O)[C@H](CCC(N)=O)NC(=O)[C@@H](NC(=O)[C@H](C)NC(=O)[C@@H]1CSSC[C@H](NC(=O)[C@H](CCCCN)NC(=O)CC[C@H](NC(=O)CCCCCCCCCCCCCCCCCCC(=O)O)C(=O)O)C(=O)N[C@@H](CC(N)=O)C(=O)N[C@@H]([C@@H](C)O)C(=O)N[C@@H](C)C(=O)N[C@@H]([C@@H](C)O)C(=O)N1)[C@@H](C)O)C(=O)N[C@@H](CC(C)C)C(=O)N1CCC[C@H]1C(=O)N1CCC[C@H]1C(=O)N[C@H](C(=O)N[C@@H](CC(N)=O)C(=O)N[C@H](C(=O)NCC(=O)N[C@@H](CO)C(=O)N[C@@H](CC(N)=O)C(=O)N[C@H](C(=O)N[C@@H](Cc1ccc(O)cc1)C(N)=O)[C@@H](C)O)C(C)C)[C@@H](C)O) [N-alpha-[(S)-4-Carboxy-4-(19-carboxynonadecanoylamino)butyryl]-[Glu14,His17]-pramlintide]"
0.164,0.155,0.2,1.31,{C20 diacid-γGlu}-HHHCNTATCATQRLAEFLHHSSNNFGPILPPTNVGSHTY-NH2 (disulfide 4-9; SMILES CC[C@H](C)[C@H](NC(=O)[C@@H]1CCCN1C(=O)CNC(=O)[C@H](Cc1ccccc1)NC(=O)[C@H](CC(N)=O)NC(=O)[C@H](CC(N)=O)NC(=O)[C@H](CO)NC(=O)[C@H](CO)NC(=O)[C@H](Cc1c[nH]cn1)NC(=O)[C@H](Cc1c[nH]cn1)NC(=O)[C@H](CC(C)C)NC(=O)[C@H](Cc1ccccc1)NC(=O)[C@H](CCC(=O)O)NC(=O)[C@H](C)NC(=O)[C@H](CC(C)C)NC(=O)[C@H](CCCNC(=N)N)NC(=O)[C@H](CCC(N)=O)NC(=O)[C@@H](NC(=O)[C@H](C)NC(=O)[C@@H]1CSSC[C@H](NC(=O)[C@H](Cc2c[nH]cn2)NC(=O)[C@H](Cc2c[nH]cn2)NC(=O)[C@H](Cc2c[nH]cn2)NC(=O)CC[C@H](NC(=O)CCCCCCCCCCCCCCCCCCC(=O)O)C(=O)O)C(=O)N[C@@H](CC(N)=O)C(=O)N[C@@H]([C@@H](C)O)C(=O)N[C@@H](C)C(=O)N[C@@H]([C@@H](C)O)C(=O)N1)[C@@H](C)O)C(=O)N[C@@H](CC(C)C)C(=O)N1CCC[C@H]1C(=O)N1CCC[C@H]1C(=O)N[C@H](C(=O)N[C@@H](CC(N)=O)C(=O)N[C@H](C(=O)NCC(=O)N[C@@H](CO)C(=O)N[C@@H](Cc1c[nH]cn1)C(=O)N[C@H](C(=O)N[C@@H](Cc1ccc(O)cc1)C(N)=O)[C@@H](C)O)C(C)C)[C@@H](C)O)
0.149,1.11,0.233,4.48,"{19‑carboxyheptadecanoyl-γGlu-AEEA-AEEA}-[dR][dR]KCNTATCATQRLAEFLHRSSANFGPILPPTNVGSSTY-NH2 (disulfide 4-9; reading uncertain; also: printed as N-alpha-[2-(2-{2-[2-(2-{2-[(S)-4-Carboxy-4-(19-carboxyheptadecanoylamino)butyrylamino]ethoxy}ethoxy)acetylamino]ethoxy}ethoxy)acetyl]-D-Arg-D-Arg-[Glu14,His17,Arg18,Ala21,Ser35]-pramlintide)"
0.603,0.543,0.401,4.87,{C20 diacid-γGlu}-HHHCHTATCATQRLAEFLHHSSNNFGPILPPTNVGSHTY-NH2 (disulfide 4-9; SMILES CC[C@H](C)[C@H](NC(=O)[C@@H]1CCCN1C(=O)CNC(=O)[C@H](Cc1ccccc1)NC(=O)[C@H](CC(N)=O)NC(=O)[C@H](CC(N)=O)NC(=O)[C@H](CO)NC(=O)[C@H](CO)NC(=O)[C@H](Cc1c[nH]cn1)NC(=O)[C@H](Cc1c[nH]cn1)NC(=O)[C@H](CC(C)C)NC(=O)[C@H](Cc1ccccc1)NC(=O)[C@H](CCC(=O)O)NC(=O)[C@H](C)NC(=O)[C@H](CC(C)C)NC(=O)[C@H](CCCNC(=N)N)NC(=O)[C@H](CCC(N)=O)NC(=O)[C@@H](NC(=O)[C@H](C)NC(=O)[C@@H]1CSSC[C@H](NC(=O)[C@H](Cc2c[nH]cn2)NC(=O)[C@H](Cc2c[nH]cn2)NC(=O)[C@H](Cc2c[nH]cn2)NC(=O)CC[C@H](NC(=O)CCCCCCCCCCCCCCCCCCC(=O)O)C(=O)O)C(=O)N[C@@H](Cc2c[nH]cn2)C(=O)N[C@@H]([C@@H](C)O)C(=O)N[C@@H](C)C(=O)N[C@@H]([C@@H](C)O)C(=O)N1)[C@@H](C)O)C(=O)N[C@@H](CC(C)C)C(=O)N1CCC[C@H]1C(=O)N1CCC[C@H]1C(=O)N[C@H](C(=O)N[C@@H](CC(N)=O)C(=O)N[C@H](C(=O)NCC(=O)N[C@@H](CO)C(=O)N[C@@H](Cc1c[nH]cn1)C(=O)N[C@H](C(=O)N[C@@H](Cc1ccc(O)cc1)C(N)=O)[C@@H](C)O)C(C)C)[C@@H](C)O)
0.0832,0.642,0.132,1.89,"{19‑carboxyheptadecanoyl-γGlu-AEEA-AEEA}-[dR][dR]KCNTATCATQRLAEFLHRSSNNFGPILPPTNVGSNTY-NH2 (disulfide 4-9; reading uncertain; also: printed as N-alpha-[2-(2-{2-[2-(2-{2-[(S)-4-Carboxy-4-(19-carboxyheptadecanoylamino)butyrylamino]ethoxy}ethoxy)acetylamino]ethoxy}ethoxy)acetyl]-D-Arg-D-Arg-[Glu14,His17,Arg18]-pramlintide)"
